Article PMC12221289, “Armless hairpin-like tRNAs in Romanomermis culicivorax: Evolutionary adaptation of a mitochondrial elongation factor EF-Tu”

Columns and labels:
Assay in all cases: DRaCALA; GTP; DRaCALA of EF-Tu:GTP:Phe-tRNA ternary complexes, 2 ul spotted on nitrocellulose, n>=3; binding buffer, pH and temperature not in the material
[1] = biological target: Bta mt-EF-Tu D384A (Bos taurus, UniProt P49410 44-452, D384A)
[2] = biological target: Bta mt-EF-Tu (Bos taurus, UniProt P49410 44-452)
[3] = biological target: Bta mt-EF-Tu D384K (Bos taurus, UniProt P49410 44-452, D384K)

B1: Phe-tRNAPhe (canonical) (structured_RNA)
RNA: GCGGAUUUAGCUCAGUUGGGAGAGCGCCAGACUGAAGAUCUGGAGGUCCUGUGUUCGAUCCACAGAAUUCGCACCA
modifications: 3'-aminoacylated with Phe (flexizyme)
Kd [1]: 11.5 nM | Kd [2]: 5.8 nM | Kd [3]: 76.6 nM
